In the Human Domainome abundance scans (Beltran et al. 2025) one finds abundance fitness data, which are given here for 43 variants.

± gives the uncertainty stated by the source.

First the molecules themselves.
B1: CD2-associated protein, residues 271 to 331; numbered along this chain, Q9Y5K6 (parent)
chain: KEYCRTLFAYEGTNEDELTFKEGEIIHLISKETGEAGWWRGELNGKEGVFPDNFAVQINEL

The series covers variants of B1. Put plainly: abundance fitness (aPCA) (normalised: wild type 0, dead -1); higher = more abundant; growth selection in yeast, the domain comes from the species named. Conditions: Homo sapiens.
On to KEYCRTLFAYEGTNEDELTFKEGEIIHLISKETGEAGWWRGELNGKEGWFPDNFAVQINEL [V49W], for which the abundance fitness was -0.111 ± 0.07.

On to KEYCRTLFAYEGTNEDELTFKEGEIIHLISKETGEAGWWRGELNGKEGHFPDNFAVQINEL [V49H], for which the abundance fitness is -0.482 ± 0.14.

In the case of KEYCRTLFAYEGTNEDELTFKEGEIIHLISKETGEAGWWRGELNGKEGEFPDNFAVQINEL [V49E], the abundance fitness is -0.674 ± 0.17.

On to KEYCRTLFAYEGTNEDELTFKEGEIIHLISKETGEAGWWRGELNGKEGGFPDNFAVQINEL [V49G], for which the abundance fitness is -0.628 ± 0.053.

For the variant KEYCRTLFAYEGTNEDELTFKEGEIIHLISKETGEAGWWRGELNGKEGNFPDNFAVQINEL [V49N], the abundance fitness is -0.099 ± 0.11.

As to KEYCRTLFAYEGTNEDELTFKEGEIIHLISKETGEAGWWRGELNGKEGKFPDNFAVQINEL [V49K], the abundance fitness turned out to be 0.003 ± 0.089.

Consider KEYCRTLFAYEGTNEDELTFKEGEIIHLISKETGEAGWWRGELNGKEGQFPDNFAVQINEL [V49Q], for which the abundance fitness was -0.302 ± 0.077.

As for KEYCRTLFAYEGTNEDELTFKEGEIIHLISKETGEAGWWRGELNGKEGMFPDNFAVQINEL [V49M], the abundance fitness is -0.082 ± 0.067.

For the variant KEYCRTLFAYEGTNEDELTFKEGEIIHLISKETGEAGWWRGELNGKEGCFPDNFAVQINEL [V49C], the abundance fitness was -0.11 ± 0.058.

Regarding KEYCRTLFAYEGTNEDELTFKEGEIIHLISKETGEAGWWRGELNGKEGTFPDNFAVQINEL [V49T], the abundance fitness is -0.129 ± 0.083.

For KEYCRTLFAYEGTNEDELTFKEGEIIHLISKETGEAGWWRGELNGKEGRFPDNFAVQINEL [V49R], the abundance fitness was 0.029 ± 0.036.

On to KEYCRTLFAYEGTNEDELTFKEGEIIHLISKETGEAGWWRGELNGKEGLFPDNFAVQINEL [V49L], for which the abundance fitness is -0.01 ± 0.038.

On to KEYCRTLFAYEGTNEDELTFKEGEIIHLISKETGEAGWWRGELNGKEGPFPDNFAVQINEL [V49P], for which the abundance fitness was -0.713 ± 0.11.

As to KEYCRTLFAYEGTNEDELTFKEGEIIHLISKETGEAGWWRGELNGKEGYFPDNFAVQINEL [V49Y], the abundance fitness was -0.022 ± 0.1.

Turning to KEYCRTLFAYEGTNEDELTFKEGEIIHLISKETGEAGWWRGELNGKEGSFPDNFAVQINEL [V49S], the abundance fitness is -0.297 ± 0.06.

Turning to KEYCRTLFAYEGTNEDELTFKEGEIIHLISKETGEAGWWRGELNGKEGAFPDNFAVQINEL [V49A], the abundance fitness is -0.319 ± 0.065.

On to KEYCRTLFAYEGTNEDELTFKEGEIIHLISKETGEAGWWRGELNGKEGVFDDNFAVQINEL [P51D], for which the abundance fitness was -0.487 ± 0.15.

With KEYCRTLFAYEGTNEDELTFKEGEIIHLISKETGEAGWWRGELNGKEGVFADNFAVQINEL [P51A], the abundance fitness is -0.447 ± 0.087.

In the case of KEYCRTLFAYEGTNEDELTFKEGEIIHLISKETGEAGWWRGELNGKEGVFCDNFAVQINEL [P51C], the abundance fitness was -0.923 ± 0.25.

As for KEYCRTLFAYEGTNEDELTFKEGEIIHLISKETGEAGWWRGELNGKDGVFPDNFAVQINEL [E47D], the abundance fitness is -0.347 ± 0.081.

As to KEYCRTLFAYEGTNEDELTFKEGEIIHLISKETGEAGWWRGELNGKHGVFPDNFAVQINEL [E47H], the abundance fitness is -0.154 ± 0.084.

For KEYCRTLFAYEGTNEDELTFKEGEIIHLISKETGEAGWWRGELNGKFGVFPDNFAVQINEL [E47F], the abundance fitness was -0.198 ± 0.073.

Regarding KEYCRTLFAYEGTNEDELTFKEGEIIHLISKETGEAGWWRGELNGKPGVFPDNFAVQINEL [E47P], the abundance fitness was -0.752 ± 0.14.

Turning to KEYCRTLFAYEGTNEDELTFKEGEIIHLISKETGEAGWWRGELNGKMGVFPDNFAVQINEL [E47M], the abundance fitness is -0.301 ± 0.21.

With KEYCRTLFAYEGTNEDELTFKEGEIIHLISKETGEAGWWRGELNGKCGVFPDNFAVQINEL [E47C], the abundance fitness is -0.104 ± 0.068.

For KEYCRTLFAYEGTNEDELTFKEGEIIHLISKETGEAGWWRGELNGKGGVFPDNFAVQINEL [E47G], the abundance fitness was -0.479 ± 0.081.

As to KEYCRTLFAYEGTNEDELTFKEGEIIHLISKETGEAGWWRGELNGKTGVFPDNFAVQINEL [E47T], the abundance fitness is -0.029 ± 0.09.

As for KEYCRTLFAYEGTNEDELTFKEGEIIHLISKETGEAGWWRGELNGKVGVFPDNFAVQINEL [E47V], the abundance fitness was -0.029 ± 0.055.

Consider KEYCRTLFAYEGTNEDELTFKEGEIIHLISKETGEAGWWRGELNGKIGVFPDNFAVQINEL [E47I], for which the abundance fitness worked out at 0.053 ± 0.061.

In the case of KEYCRTLFAYEGTNEDELTFKEGEIIHLISKETGEAGWWRGELNGKQGVFPDNFAVQINEL [E47Q], the abundance fitness is 0.014 ± 0.13.

As to KEYCRTLFAYEGTNEDELTFKEGEIIHLISKETGEAGWWRGELNGKAGVFPDNFAVQINEL [E47A], the abundance fitness was -0.248 ± 0.067.

On to KEYCRTLFAYEGTNEDELTFKEGEIIHLISKETGEAGWWRGELNGKLGVFPDNFAVQINEL [E47L], for which the abundance fitness was -0.241 ± 0.074.

In the case of KEYCRTLFAYEGTNEDELTFKEGEIIHLISKETGEAGWWRGELNGKWGVFPDNFAVQINEL [E47W], the abundance fitness is -0.601 ± 0.15.

In the case of KEYCRTLFAYEGTNEDELTFKEGEIIHLISKETGEAGWWRGELNGKNGVFPDNFAVQINEL [E47N], the abundance fitness was -0.205 ± 0.062.

Turning to KEYCRTLFAYEGTNEDELTFKEGEIIHLISKETGEAGWWRGELNGKRGVFPDNFAVQINEL [E47R], the abundance fitness is -0.02 ± 0.076.

With KEYCRTLFAYEGTNEDELTFKEGEIIHLISKETGEAGWWRGELNGKSGVFPDNFAVQINEL [E47S], the abundance fitness was -0.052 ± 0.048.

As to KEYCRTLFAYEGTNEDELTFKEGEIIHLISKETGEAGWWRGELNGKYGVFPDNFAVQINEL [E47Y], the abundance fitness is -0.171 ± 0.059.

Turning to KEYCRTLFAYEGTNEDELTFKEGEIIHLISKETGEAGWWRGELNGKEDVFPDNFAVQINEL [G48D], the abundance fitness is -0.695 ± 0.15.

KEYCRTLFAYEGTNEDELTFKEGEIIHLISKETGEAGWWRGELNGKEFVFPDNFAVQINEL [G48F]: the abundance fitness is -1.05 ± 0.27.

On to KEYCRTLFAYEGTNEDELTFKEGEIIHLISKETGEAGWWRGELNGKEQVFPDNFAVQINEL [G48Q], for which the abundance fitness was -0.93 ± 0.16.

Regarding KEYCRTLFAYEGTNEDELTFKEGEIIHLISKETGEAGWWRGELNGKECVFPDNFAVQINEL [G48C], the abundance fitness was -1.01 ± 0.15.

As to KEYCRTLFAYEGTNEDELTFKEGEIIHLISKETGEAGWWRGELNGKEHVFPDNFAVQINEL [G48H], the abundance fitness was -0.749 ± 0.13.

Turning to KEYCRTLFAYEGTNEDELTFKEGEIIHLISKETGEAGWWRGELNGKESVFPDNFAVQINEL [G48S], the abundance fitness is -0.843 ± 0.071.
